Experimental data taken from patent publication US20210054097A1 (Novo Nordisk, published 2021).
Ends that are not written are not given here.

Tests used:
[1] = biological target: T1, FX activation peptide 12-mer VAQATSSSGEAP (human); assay: peptide ELISA
T1 peptide: VAQATSSSGEAP-biotin
Outline: (§1)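 Nanobodies (FLAG-tagged) or IgG antibodies, 2 μg/mL, incubated 1 h on C-terminally biotinylated peptide captured via streptavidin, washing buffer pH 8.60 containing CaCl₂ and Tween 20. Read-out: HRP-conjugated secondary antibody with TMB colour development.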

[2] = biological target: T2, FX activation peptide 12-mer SSSGEAPDSITW (human); assay: peptide ELISA
T2 peptide: SSSGEAPDSITW-biotin
Outline: as §1

[3] = biological target: T3, FX activation peptide 12-mer GEAPDSITWKPY (human); assay: peptide ELISA
T3 peptide: GEAPDSITWKPY-biotin
Outline: as §1

[4] = biological target: T4, FX activation peptide 12-mer PDSITWKPYDAA (human); assay: peptide ELISA
T4 peptide: PDSITWKPYDAA-biotin
Outline: as §1

[5] = biological target: T5, FX activation peptide 12-mer DSITWKPYDAAD (human); assay: peptide ELISA
T5 peptide: DSITWKPYDAAD-biotin
Outline: as §1

[6] = biological target: T6, FX activation peptide 12-mer AADLDPTENPFD (human); assay: peptide ELISA
T6 peptide: AADLDPTENPFD-biotin
Outline: as §1

[7] = biological target: T7, FX activation peptide 12-mer PTENPFDLLDFN (human); assay: peptide ELISA
T7 peptide: PTENPFDLLDFN-biotin
Outline: as §1

[8] = biological target: T8, FX activation peptide 12-mer NQTQPERGDNNL (human); assay: peptide ELISA
T8 peptide: NQTQPERGDNNL-biotin
Outline: as §1

human activated Factor X = human activated Factor X (human, UniProt P00742 41-179; P00742 235-488); assay: cell-based or functional assay
human activated Factor X, sequence (P00742 41-179, chain 1 of 2): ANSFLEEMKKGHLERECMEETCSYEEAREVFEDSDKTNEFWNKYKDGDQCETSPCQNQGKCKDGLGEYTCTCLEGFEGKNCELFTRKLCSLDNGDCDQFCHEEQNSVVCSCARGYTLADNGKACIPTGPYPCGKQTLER
human activated Factor X, sequence (P00742 235-488, chain 2 of 2): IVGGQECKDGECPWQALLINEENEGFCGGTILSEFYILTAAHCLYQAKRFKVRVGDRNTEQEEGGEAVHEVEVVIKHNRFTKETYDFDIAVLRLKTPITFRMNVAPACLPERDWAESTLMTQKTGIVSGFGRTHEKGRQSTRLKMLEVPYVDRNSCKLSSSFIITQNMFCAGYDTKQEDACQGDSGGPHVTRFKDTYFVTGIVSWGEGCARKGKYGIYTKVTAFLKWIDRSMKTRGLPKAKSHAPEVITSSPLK

[9] = biological target: T9, human plasma-derived Factor X zymogen (human, UniProt P00742 41-179; P00742 183-488); assay: apparent KD fitted from FXa generation assay
T9 construct: Plasma-derived, bought (Haematologic Technologies); also called FX; human FX
T9 sequence (P00742 41-179, chain 1 of 2): as the sequence (P00742 41-179, chain 1 of 2) above
T9 sequence (P00742 183-488, chain 2 of 2): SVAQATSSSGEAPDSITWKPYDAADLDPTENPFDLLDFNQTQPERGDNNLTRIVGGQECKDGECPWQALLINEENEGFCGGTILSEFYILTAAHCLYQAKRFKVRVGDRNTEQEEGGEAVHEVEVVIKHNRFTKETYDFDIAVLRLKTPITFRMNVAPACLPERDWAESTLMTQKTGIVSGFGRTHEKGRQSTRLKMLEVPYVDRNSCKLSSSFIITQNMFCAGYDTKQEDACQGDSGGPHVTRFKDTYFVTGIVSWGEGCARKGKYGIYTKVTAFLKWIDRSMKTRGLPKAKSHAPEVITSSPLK
Experimental: The ability of the monovalent anti-FX Nanobody® (Nb) to promote FIXa-mediated FX-activation was determined in the presence of a procoagulant phospholipid membrane according to the principles described by Scheiflinger et al. (2008) J Thromb Haemost, 6:315-322. A Fab of mAb 13F62 (IgG1 isotype, variable sequences identified by SEQ ID NO:6 and 7), also found to bind the activation peptide, were included for comparison. Moreover, anti-FX antibodies as disclosed in U.S. Pat. No. 9,334,331 (J327 and L404-k in said publication), corresponding to the anti-FX arm of ACE910); and more recently in WO2018/021450 (J327 D31H and JYL280 in said publication) and WO2018/098363 (BIIB-12-917 represented by SEQ ID NO:427 and 615 in said publication) are stated to be suitable for use as part of anti-FIX/anti-FX bispecific FVIII mimetic compounds were, furthermore, included for comparison.
Each compound was tested individually in a concentration range from 0-1000 nM, 0-2000 nM, 0-4000 nM or 0-8000 nM by pre-incubation with 1-1.5 nM human plasma-derived FIXa (Haematologic Technologies Inc, USA) and 500 μM 25:75 phosphatidyl serine:phosphatidyl choline phospholipid vesicles (Haematologic Technologies Inc, USA) in assay buffer (50 mM HEPES, 100 mM NaCl, 5 mM CaCl₂, 0.1% (w/v) PEG8000, 1 mg/mL bovine serum albumin, pH 7.3) for 10 minutes. The reaction was initiated by addition of human plasma-derived FX (Haematologic Technologies Inc, USA) to a final concentration of 100 nM and a reaction volume of 50 μL. Following 20 minutes activation at room temperature while agitated (1000 RPM), the reaction was quenched by addition of 25 μL quench buffer (50 mM HEPES, 100 mM NaCl, 60 mM EDTA, 0.1% (w/v) PEG8000, 1 mg/mL bovine serum albumin, pH 7.3). The amount of FXa generated was determined by addition of 25 μL 2 mM S-2765 chromogenic substrate for FXa (Chromogenix, Sweden) and chromogenic substrate conversion was followed by measuring absorbance at 405 nm for 10 minutes in a microplate reader. The observed change in 405 nm absorbance (ΔAbs405/min) was fitted to the quadratic binding equation (eq. 1) to obtain the peak stimulatory activity and EC50.

[10] = biological target: T9, human plasma-derived Factor X zymogen; assay: SPR steady state, Nb captured by anti-His mAb, FX injected
Experimental: Binding of purified anti-FX Nanobodies (Nb) to human plasma-derived FX (Haematologic Technologies Inc, USA) was probed by Surface Plasmon Resonance (SPR) (Biacore T200). Briefly, anti-His mAb (MAB050 from R&D systems) was immobilised on a CM4 sensor chip using standard amine coupling chemistry. Anti-FX Nanobodies (10 nM), according to Table 3, was injected at a flow rate of 10 μL/min for 1 minute. Subsequently 4096, 1024, 256, 64, 16, 4, and 0 nM of FX were injected at a flow rate of 30 μL/min for 4 minutes to allow for binding to anti-FX Nb followed by a 5 minutes running buffer (10 mM HEPES, 150 mM NaCl, 5 mM CaCl₂, 0.05% (v/v) Surfactant P20, 1 mg/mL bovine serum albumin, pH 7.4) injection allowing dissociation from anti-FX Nanobody®. The running buffer was also for dilution of anti-FX Nb and FX samples. Regeneration of the chip was achieved using a regeneration buffer consisting of 3M MgCl₂, 30 seconds contact time, and a 30 μL/min flow rate. The binding data were collected at 25° C. and were analysed according to a 1:1 model using BiaEvaluation 4.1 supplied by the manufacturer (Biacore AB, Uppsala, Sweden).
Therefore, the reported KD values are determined based on steady state analysis. The strongest binder identified is Nb702C12, while the others Nanobodies® tested binds FX with a slightly higher KD and lower Rₘₐₓ.

B1: Nb 702C12 (VHH)
VHH: EVQLVESGGGVVQPGGSLRLSCVASGRTFSRYAMGWFRQAPGKEREFVAAISRRGGSTNYADSVKGRFTISRDNSKNTVYLQMNSLRPEDTALYYCAADYSSGDGYLDYWGQGTLVTVSS
notes: monovalent Nanobody; not shown: C-terminal FLAG3 and HIS6 tag
Which “ELISA signal relative to background” value [1] does the source give for B1 here?
The value was 1.02.

What about the “ELISA signal relative to background” value [2] of the same binder?
Its value is 0.86.

And the “ELISA signal relative to background” value [3]?
Its value is 0.93.

And the “ELISA signal relative to background” value [4]?
Its value is 1.05.

And the “ELISA signal relative to background” value [5]?
Its value is 1.08.

And the “ELISA signal relative to background” value [6]?
The value was 0.88.

And the “ELISA signal relative to background” value [7]?
The value was 4.58.

What about the “ELISA signal relative to background” value [8] of the same binder?
The value was 0.92.

What about the “FXa amidolytic activity (relative to free FXa, fold)” value (human activated Factor X) of the same binder?
The value was 1.05 fold.

What about the Kd [9] of the same binder?
The Kd was 75.4 nM.

What about the Kd [10] of the same binder?
Its Kd is 1200 nM.
